The text below walks through data of patent US20220306695A1, “COMPSTATIN ANALOGUES AND THEIR MEDICAL USES” (priority 2019, published 2022).

To fix the notation:
B1: Compound 83 (peptide)
peptide: Ac-SEFCI[Trp(1-Me)]QEWGEHRC[Sar]EA-NH2
modifications: disulfide 4-14
SMILES: CC[C@H](C)[C@@H]1NC(=O)[C@@H](NC(=O)[C@H](Cc2ccccc2)NC(=O)[C@H](CCC(=O)O)NC(=O)[C@H](CO)NC(C)=O)CSSC[C@@H](C(=O)N(C)CC(=O)N[C@@H](CCC(=O)O)C(=O)N[C@@H](C)C(N)=O)NC(=O)[C@H](CCCNC(=N)N)NC(=O)[C@H](Cc2c[nH]cn2)NC(=O)[C@H](CCC(=O)O)NC(=O)CNC(=O)[C@H](Cc2c[nH]c3ccccc23)NC(=O)[C@H](CCC(=O)O)NC(=O)[C@H](CCC(N)=O)NC(=O)[C@H](Cc2cn(C)c3ccccc23)NC1=O
B2: Compound 77 (peptide)
peptide: Ac-SEFCI[Trp(1-Me)]QDW[Sar]EHRCTEA-NH2
modifications: disulfide 4-14
SMILES: CC[C@H](C)[C@@H]1NC(=O)[C@@H](NC(=O)[C@H](Cc2ccccc2)NC(=O)[C@H](CCC(=O)O)NC(=O)[C@H](CO)NC(C)=O)CSSC[C@@H](C(=O)N[C@H](C(=O)N[C@@H](CCC(=O)O)C(=O)N[C@@H](C)C(N)=O)[C@@H](C)O)NC(=O)[C@H](CCCNC(=N)N)NC(=O)[C@H](Cc2c[nH]cn2)NC(=O)[C@H](CCC(=O)O)NC(=O)CN(C)C(=O)[C@H](Cc2c[nH]c3ccccc23)NC(=O)[C@H](CC(=O)O)NC(=O)[C@H](CCC(N)=O)NC(=O)[C@H](Cc2cn(C)c3ccccc23)NC1=O
B3: Compound 78 (peptide)
peptide: Ac-SEFCI[Trp(1-Me)]QDWGEHRC[Sar]E-NH2
modifications: disulfide 4-14
SMILES: CC[C@H](C)[C@@H]1NC(=O)[C@@H](NC(=O)[C@H](Cc2ccccc2)NC(=O)[C@H](CCC(=O)O)NC(=O)[C@H](CO)NC(C)=O)CSSC[C@@H](C(=O)N(C)CC(=O)N[C@@H](CCC(=O)O)C(N)=O)NC(=O)[C@H](CCCNC(=N)N)NC(=O)[C@H](Cc2c[nH]cn2)NC(=O)[C@H](CCC(=O)O)NC(=O)CNC(=O)[C@H](Cc2c[nH]c3ccccc23)NC(=O)[C@H](CC(=O)O)NC(=O)[C@H](CCC(N)=O)NC(=O)[C@H](Cc2cn(C)c3ccccc23)NC1=O
B4: Compound 79 (peptide)
peptide: Ac-SEFCI[Trp(1-Me)]QDW[Sar]EHRC[Sar]E-NH2
modifications: disulfide 4-14
SMILES: CC[C@H](C)[C@@H]1NC(=O)[C@@H](NC(=O)[C@H](Cc2ccccc2)NC(=O)[C@H](CCC(=O)O)NC(=O)[C@H](CO)NC(C)=O)CSSC[C@@H](C(=O)N(C)CC(=O)N[C@@H](CCC(=O)O)C(N)=O)NC(=O)[C@H](CCCNC(=N)N)NC(=O)[C@H](Cc2c[nH]cn2)NC(=O)[C@H](CCC(=O)O)NC(=O)CN(C)C(=O)[C@H](Cc2c[nH]c3ccccc23)NC(=O)[C@H](CC(=O)O)NC(=O)[C@H](CCC(N)=O)NC(=O)[C@H](Cc2cn(C)c3ccccc23)NC1=O
B5: Compound 80 (peptide)
peptide: Ac-EFCI[Trp(1-Me)]QDWGEHRC[Sar]EA-NH2
modifications: disulfide 3-13
SMILES: CC[C@H](C)[C@@H]1NC(=O)[C@@H](NC(=O)[C@H](Cc2ccccc2)NC(=O)[C@H](CCC(=O)O)NC(C)=O)CSSC[C@@H](C(=O)N(C)CC(=O)N[C@@H](CCC(=O)O)C(=O)N[C@@H](C)C(N)=O)NC(=O)[C@H](CCCNC(=N)N)NC(=O)[C@H](Cc2c[nH]cn2)NC(=O)[C@H](CCC(=O)O)NC(=O)CNC(=O)[C@H](Cc2c[nH]c3ccccc23)NC(=O)[C@H](CC(=O)O)NC(=O)[C@H](CCC(N)=O)NC(=O)[C@H](Cc2cn(C)c3ccccc23)NC1=O
B6: Compound 84 (peptide)
peptide: Ac-SEFCI[Trp(1-Me)]QDWGEHRCSEA-NH2
modifications: disulfide 4-14
SMILES: CC[C@H](C)[C@@H]1NC(=O)[C@@H](NC(=O)[C@H](Cc2ccccc2)NC(=O)[C@H](CCC(=O)O)NC(=O)[C@H](CO)NC(C)=O)CSSC[C@@H](C(=O)N[C@@H](CO)C(=O)N[C@@H](CCC(=O)O)C(=O)N[C@@H](C)C(N)=O)NC(=O)[C@H](CCCNC(=N)N)NC(=O)[C@H](Cc2c[nH]cn2)NC(=O)[C@H](CCC(=O)O)NC(=O)CNC(=O)[C@H](Cc2c[nH]c3ccccc23)NC(=O)[C@H](CC(=O)O)NC(=O)[C@H](CCC(N)=O)NC(=O)[C@H](Cc2cn(C)c3ccccc23)NC1=O
B7: Compound 87 (peptide)
peptide: Ac-GEFCI[Trp(1-Me)]QDWGEHRC[Sar]EA-NH2
modifications: disulfide 4-14
SMILES: CC[C@H](C)[C@@H]1NC(=O)[C@@H](NC(=O)[C@H](Cc2ccccc2)NC(=O)[C@H](CCC(=O)O)NC(=O)CNC(C)=O)CSSC[C@@H](C(=O)N(C)CC(=O)N[C@@H](CCC(=O)O)C(=O)N[C@@H](C)C(N)=O)NC(=O)[C@H](CCCNC(=N)N)NC(=O)[C@H](Cc2c[nH]cn2)NC(=O)[C@H](CCC(=O)O)NC(=O)CNC(=O)[C@H](Cc2c[nH]c3ccccc23)NC(=O)[C@H](CC(=O)O)NC(=O)[C@H](CCC(N)=O)NC(=O)[C@H](Cc2cn(C)c3ccccc23)NC1=O
B8: Compound 104 (peptide)
peptide: Ac-EGSAYCI[Trp(1-Me)]QDWGEHRC[Sar]EGK([AEEA-AEEA-γGlu-C16 diacid])-NH2
modifications: disulfide 6-16
SMILES: CC[C@H](C)[C@@H]1NC(=O)[C@@H](NC(=O)[C@H](Cc2ccc(O)cc2)NC(=O)[C@H](C)NC(=O)[C@H](CO)NC(=O)CNC(=O)[C@H](CCC(=O)O)NC(C)=O)CSSC[C@@H](C(=O)N(C)CC(=O)N[C@@H](CCC(=O)O)C(=O)NCC(=O)N[C@@H](CCCCNC(=O)COCCOCCNC(=O)COCCOCCNC(=O)CC[C@H](NC(=O)CCCCCCCCCCCCCCC(=O)O)C(=O)O)C(N)=O)NC(=O)[C@H](CCCNC(=N)N)NC(=O)[C@H](Cc2c[nH]cn2)NC(=O)[C@H](CCC(=O)O)NC(=O)CNC(=O)[C@H](Cc2c[nH]c3ccccc23)NC(=O)[C@H](CC(=O)O)NC(=O)[C@H](CCC(N)=O)NC(=O)[C@H](Cc2cn(C)c3ccccc23)NC1=O
B9: Compound 54 (peptide)
peptide: Ac-EGSAYCI[Trp(1-Me)]QDWGEHRC[Sar]E-NH2
modifications: disulfide 6-16
SMILES: CC[C@H](C)[C@@H]1NC(=O)[C@@H](NC(=O)[C@H](Cc2ccc(O)cc2)NC(=O)[C@H](C)NC(=O)[C@H](CO)NC(=O)CNC(=O)[C@H](CCC(=O)O)NC(C)=O)CSSC[C@@H](C(=O)N(C)CC(=O)N[C@@H](CCC(=O)O)C(N)=O)NC(=O)[C@H](CCCNC(=N)N)NC(=O)[C@H](Cc2c[nH]cn2)NC(=O)[C@H](CCC(=O)O)NC(=O)CNC(=O)[C@H](Cc2c[nH]c3ccccc23)NC(=O)[C@H](CC(=O)O)NC(=O)[C@H](CCC(N)=O)NC(=O)[C@H](Cc2cn(C)c3ccccc23)NC1=O
B10: Compound 107 (peptide)
peptide: {C16 diacid}-EGSEYCI[Trp(1-Me)]QDWGEHRC[Sar]E-NH2
modifications: disulfide 6-16
SMILES: CC[C@H](C)[C@@H]1NC(=O)[C@@H](NC(=O)[C@H](Cc2ccc(O)cc2)NC(=O)[C@H](CCC(=O)O)NC(=O)[C@H](CO)NC(=O)CNC(=O)[C@H](CCC(=O)O)NC(=O)CCCCCCCCCCCCCCC(=O)O)CSSC[C@@H](C(=O)N(C)CC(=O)N[C@@H](CCC(=O)O)C(N)=O)NC(=O)[C@H](CCCNC(=N)N)NC(=O)[C@H](Cc2c[nH]cn2)NC(=O)[C@H](CCC(=O)O)NC(=O)CNC(=O)[C@H](Cc2c[nH]c3ccccc23)NC(=O)[C@H](CC(=O)O)NC(=O)[C@H](CCC(N)=O)NC(=O)[C@H](Cc2cn(C)c3ccccc23)NC1=O
B11: Compound 102 (peptide)
peptide: Ac-FCI[Trp(1-Me)]QDWGEHRCTGAESK([AEEA-AEEA-γGlu-C16 diacid])-NH2
modifications: disulfide 2-12
SMILES: CC[C@H](C)[C@@H]1NC(=O)[C@@H](NC(=O)[C@H](Cc2ccccc2)NC(C)=O)CSSC[C@@H](C(=O)N[C@H](C(=O)NCC(=O)N[C@@H](C)C(=O)N[C@@H](CCC(=O)O)C(=O)N[C@@H](CO)C(=O)N[C@@H](CCCCNC(=O)COCCOCCNC(=O)COCCOCCNC(=O)CC[C@H](NC(=O)CCCCCCCCCCCCCCC(=O)O)C(=O)O)C(N)=O)[C@@H](C)O)NC(=O)[C@H](CCCNC(=N)N)NC(=O)[C@H](Cc2c[nH]cn2)NC(=O)[C@H](CCC(=O)O)NC(=O)CNC(=O)[C@H](Cc2c[nH]c3ccccc23)NC(=O)[C@H](CC(=O)O)NC(=O)[C@H](CCC(N)=O)NC(=O)[C@H](Cc2cn(C)c3ccccc23)NC1=O

Starred links: 1 amine or outer side, 2 acyl side, 3 side chain; linkers in the order of their positions; H or OH if unused. Positions of bridges follow the written chain, without caps; N, C: chain ends. Non-standard residues stand in square brackets, D forms with d. Groups on a side chain read outwards from the residue. *: point of attachment. Trp(1-Me) = Cn1cc(C[C@H](N)C(=O)O)c2ccccc21; C16 diacid = O=C(O)CCCCCCCCCCCCCCC(=O)*; γGlu = O=C(O)[C@H](CCC(=O)[*:2])N[*:1]; AEEA = NCCOCCOCC(=O)O; Sar = CNCC(=O)O Where only a bound is given, the exact number is not on record here.

T1 sequence (P01024 23-1663 limits assumed): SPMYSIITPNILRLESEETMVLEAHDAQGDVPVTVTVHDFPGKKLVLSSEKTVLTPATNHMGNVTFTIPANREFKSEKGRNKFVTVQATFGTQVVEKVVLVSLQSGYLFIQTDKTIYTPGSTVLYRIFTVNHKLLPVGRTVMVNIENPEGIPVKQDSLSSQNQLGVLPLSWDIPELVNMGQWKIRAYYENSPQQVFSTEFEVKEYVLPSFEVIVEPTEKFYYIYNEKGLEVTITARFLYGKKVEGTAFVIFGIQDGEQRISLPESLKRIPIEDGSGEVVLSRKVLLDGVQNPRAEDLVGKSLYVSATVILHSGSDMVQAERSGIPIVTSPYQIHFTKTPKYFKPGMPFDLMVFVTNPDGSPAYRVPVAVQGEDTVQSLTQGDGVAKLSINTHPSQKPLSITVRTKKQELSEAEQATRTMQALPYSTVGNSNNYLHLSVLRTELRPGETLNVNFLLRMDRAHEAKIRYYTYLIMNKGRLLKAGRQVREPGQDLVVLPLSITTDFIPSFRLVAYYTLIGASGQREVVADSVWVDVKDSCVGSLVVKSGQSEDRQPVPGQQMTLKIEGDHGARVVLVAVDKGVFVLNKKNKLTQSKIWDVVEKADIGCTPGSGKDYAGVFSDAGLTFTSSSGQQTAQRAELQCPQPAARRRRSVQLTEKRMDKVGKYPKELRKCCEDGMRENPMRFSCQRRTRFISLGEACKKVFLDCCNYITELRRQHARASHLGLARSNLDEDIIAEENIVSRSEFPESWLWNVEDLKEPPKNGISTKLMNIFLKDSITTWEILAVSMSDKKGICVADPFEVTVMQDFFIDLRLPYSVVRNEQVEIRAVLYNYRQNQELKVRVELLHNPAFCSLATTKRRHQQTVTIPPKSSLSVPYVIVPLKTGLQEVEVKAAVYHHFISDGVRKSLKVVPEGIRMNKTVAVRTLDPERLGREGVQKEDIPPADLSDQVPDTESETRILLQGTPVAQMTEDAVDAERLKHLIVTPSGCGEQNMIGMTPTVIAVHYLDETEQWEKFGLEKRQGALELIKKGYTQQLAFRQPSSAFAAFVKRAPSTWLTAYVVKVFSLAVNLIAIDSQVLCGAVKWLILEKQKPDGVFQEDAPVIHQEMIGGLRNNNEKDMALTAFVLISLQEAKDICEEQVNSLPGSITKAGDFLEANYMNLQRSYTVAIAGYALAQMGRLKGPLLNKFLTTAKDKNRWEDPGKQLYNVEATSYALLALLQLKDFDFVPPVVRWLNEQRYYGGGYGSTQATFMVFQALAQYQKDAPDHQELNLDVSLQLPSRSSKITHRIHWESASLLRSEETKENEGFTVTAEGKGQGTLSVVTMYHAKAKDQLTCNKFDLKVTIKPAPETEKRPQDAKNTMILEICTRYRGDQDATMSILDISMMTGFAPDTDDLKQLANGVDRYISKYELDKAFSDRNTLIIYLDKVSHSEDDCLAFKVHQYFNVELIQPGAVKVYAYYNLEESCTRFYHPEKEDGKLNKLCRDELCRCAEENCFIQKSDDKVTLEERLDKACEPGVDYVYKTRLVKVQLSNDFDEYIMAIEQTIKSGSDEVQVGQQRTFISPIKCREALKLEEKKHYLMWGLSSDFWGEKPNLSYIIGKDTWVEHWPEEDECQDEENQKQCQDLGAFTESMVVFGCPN

One assay concerns the target T1, Human C3 (human, UniProt P01024 23-1663). Briefly: cell-based or functional assay.
Regarding B1, the IC50[nM], inhibition of hemolysis is less than 100 nM. Molecule B2 had an IC50[nM], inhibition of hemolysis of less than 100 nM. In turn, B3 had an IC50[nM], inhibition of hemolysis of less than 100 nM. With B4, the IC50[nM], inhibition of hemolysis is less than 100 nM. Same read-out and setting: for B5 the value was less than 100 nM; for B6, less than 100 nM; for B7, less than 100 nM.

In a further assay the target is T1, Human C3. Briefly: SPR, C3 immobilised. As to the method:
Surface plasmon resonance (SPR) was used to characterize peptides with respect to their binding affinity (Kd) for C3. Human C3 (Complement tech cat #A1 13c) was immobilised on individual flow cells of CM5 sensor chips (GE Healthcare) using standard amine coupling to a density of approximately 3000 resonance units (RU) in a buffer consisting of 10 mM phosphate pH 7.4, 150 mM NaCl, 0.05% Tween20.
For interaction experiments a multi-cycle experiment approach was used and performed using either a Biacore™ T200 or Biacore™ X100 instrument (GE Healthcare) at 25° C. Peptides were injected in increasing concentration series (5-8 different concentrations) for 60-120 s at a flow rate of 30 μL/min in a buffer consisting of 10 mM Tris buffer at pH 7.4, with 150 mM NaCl and 0.05% Tween20. This was followed by a dissociation period for up to 10 min. The C3 surface was regenerated between runs by a 45 s injection of 3 M MgCl₂.
Sensorgrams were double-referenced (reference surface, blanks) prior to analysis of the kinetic profiles by globally fitting data to a 1:1 Langmuir binding model to obtain association and dissociation rates for calculation of the equilibrium dissociation constant Kd. Each peptide was tested at in at least 2 independent experiments.
The molecule B8 showed a Kd of 34 nM.

For the molecule B9, the Kd came out at 3 nM. On the same count and under the same terms, for B10 the value was 6.1 nM. For the molecule B11, the Kd stood at 1.7 nM.

The target in another assay is T1, Human C3. The experiment in a line: cell-based or functional assay. The source holds these as a separate data set.
For B8, the “IC50[nM], inhibition of hemolysis” value was less than 100 nM.

On to B9, for which the “IC50[nM], inhibition of hemolysis” value was less than 100 nM.

As to B10, the “IC50[nM], inhibition of hemolysis” value was less than 100 nM. Regarding B11, the “IC50[nM], inhibition of hemolysis” value is less than 100 nM.

For orientation: Kd means the equilibrium constant for the complex coming apart. A lower Kd goes with a tighter complex.
